One block for each binder: values may come before it.
Biological target: T1, Utp21 1–684 (tandem WD domain, GST-tag cleaved) (yeast (S. cerevisiae), UniProt Q06078 1-684)
T1 construct: The methods say only 'purified as described above' for the protein of the pull-down; also called tandem WD domain of Utp21; source: E. coli BL21(DE3), purified (Glutathione Sepharose, on-bead PreScission cleavage, Superdex 200); not shown: GST, N-terminal, cleaved
T1 sequence (looked up): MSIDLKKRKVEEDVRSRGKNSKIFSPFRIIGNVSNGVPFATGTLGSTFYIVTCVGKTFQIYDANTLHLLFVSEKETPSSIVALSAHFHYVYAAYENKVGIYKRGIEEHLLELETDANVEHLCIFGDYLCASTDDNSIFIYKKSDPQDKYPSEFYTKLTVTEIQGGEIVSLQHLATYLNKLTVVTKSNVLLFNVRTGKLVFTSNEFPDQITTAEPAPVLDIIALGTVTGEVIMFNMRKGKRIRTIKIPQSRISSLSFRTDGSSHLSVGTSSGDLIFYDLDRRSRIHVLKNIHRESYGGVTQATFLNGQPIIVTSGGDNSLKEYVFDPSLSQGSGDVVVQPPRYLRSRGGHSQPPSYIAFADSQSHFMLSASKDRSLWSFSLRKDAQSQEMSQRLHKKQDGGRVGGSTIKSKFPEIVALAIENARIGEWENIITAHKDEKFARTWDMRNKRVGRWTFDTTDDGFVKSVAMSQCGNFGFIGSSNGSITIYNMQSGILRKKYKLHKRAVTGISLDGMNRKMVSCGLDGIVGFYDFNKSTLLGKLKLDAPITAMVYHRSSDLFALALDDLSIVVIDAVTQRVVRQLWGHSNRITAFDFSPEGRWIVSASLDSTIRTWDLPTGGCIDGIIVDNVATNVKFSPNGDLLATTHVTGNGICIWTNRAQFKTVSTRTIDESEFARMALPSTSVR
Assay: pull-down; His6-Smt3-tagged Utp18 fragments (0.95 nmol) incubated with Utp21 1–684 (1.9 nmol) 2 h at 4°C, bound to Ni Sepharose beads; washed with 25 mM Tris-HCl pH 7.6, 500 mM NaCl, 10 mM imidazole; SDS-PAGE, Coomassie
Conditions: both partners purified

binding result: binds
B1: His6-Smt3-Utp18 100–190 (domain or fragment, yeast (S. cerevisiae), UniProt P40362 100-190, looked up)
chain: EDTMDVDDEDDSSSDDYSEDSEEAAWIDSDDEKIKVPILVTNKTKKLRTSYNESKINGVHYINRLRSQFEKIYPRPKWVDDESDSELDDEE
notes: Utp18, yeast (S. cerevisiae), residues 100–190; source: expressed from pET28a, purified (HisTrap and Q chromatography); not shown: His6, N-terminal, kept; Smt3, N-terminal, kept

binding result: binds
B2: His6-Smt3-Utp18 100–139 (domain or fragment, yeast (S. cerevisiae), UniProt P40362 100-139, looked up)
chain: EDTMDVDDEDDSSSDDYSEDSEEAAWIDSDDEKIKVPILV
notes: Utp18, yeast (S. cerevisiae), residues 100–139; source: expressed from pET28a, purified (HisTrap and Q chromatography); not shown: His6, N-terminal, kept; Smt3, N-terminal, kept

binding result: binds
B3: His6-Smt3-Utp18 139–190 (domain or fragment, yeast (S. cerevisiae), UniProt P40362 139-190, looked up)
chain: VTNKTKKLRTSYNESKINGVHYINRLRSQFEKIYPRPKWVDDESDSELDDEE
notes: Utp18, yeast (S. cerevisiae), residues 139–190; source: expressed from pET28a, purified (HisTrap and Q chromatography); not shown: His6, N-terminal, kept; Smt3, N-terminal, kept

Source: article PMC3897721, “Structure of Utp21 Tandem WD Domain Provides Insight into the Organization of the UTPB Complex Involved in Ribosome Synthesis” (PLoS ONE, 2014)
